Changes are numbered by the printed parent chain.
T1: human PAR4 on isolated human platelets (human, UniProt Q96RI0 18-385)
T1 sequence: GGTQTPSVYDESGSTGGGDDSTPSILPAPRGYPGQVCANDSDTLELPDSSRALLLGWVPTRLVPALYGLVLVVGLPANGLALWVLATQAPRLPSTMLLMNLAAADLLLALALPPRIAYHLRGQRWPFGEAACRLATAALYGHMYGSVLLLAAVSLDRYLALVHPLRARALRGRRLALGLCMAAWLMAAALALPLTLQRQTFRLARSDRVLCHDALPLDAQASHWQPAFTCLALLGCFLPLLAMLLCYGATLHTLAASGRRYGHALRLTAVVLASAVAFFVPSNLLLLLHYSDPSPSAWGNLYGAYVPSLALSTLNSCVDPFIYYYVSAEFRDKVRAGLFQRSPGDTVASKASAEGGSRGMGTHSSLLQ

T2: hPAR1 (Biotin) peptide (human, not fully specified; biotin on the C-terminal lysine (SKB))
T2 construct: also called PAR1 peptide; PAR1 screening peptide
T2 peptide: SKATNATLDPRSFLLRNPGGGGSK

T3: hPAR4 (naked) peptide (human)
T3 construct: also called native PAR4 peptide; hPAR4 peptide
T3 peptide: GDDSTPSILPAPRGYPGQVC

T4: hPAR3 (Biotin) peptide (human, biotin on the C-terminal lysine (SKB))
T4 construct: also called PAR3 peptide; PAR3 screening peptide
T4 peptide: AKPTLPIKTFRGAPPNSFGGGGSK

T5: mPAR4 (naked) peptide (mouse)
T5 construct: T0021 says only 'mouse PAR4'; also called mouse PAR4
T5 peptide: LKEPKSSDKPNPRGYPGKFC

T6: hPAR2 (Biotin) peptide (human, not fully specified; biotin on the C-terminal lysine (SKB))
T6 construct: also called PAR2 peptide; PAR2 screening peptide
T6 peptide: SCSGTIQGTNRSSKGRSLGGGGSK

T7: hPAR4 (Biotin) peptide (human, biotin on the C-terminal lysine (SKB))
T7 construct: also called hPAR4-biotinylated peptide; biotin-coupled human PAR4 peptide
T7 peptide: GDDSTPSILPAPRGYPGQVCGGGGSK

T8: hPAR4 11-20 peptide (human)
T8 construct: Range counted on the hPAR4 immunising peptide; the C-terminal cysteine was removed, so nine residues are given; also called peptide 11-20
T8 peptide: APRGYPGQV

T9: hPAR4 1-9 peptide (human)
T9 construct: Range counted on the hPAR4 immunising peptide; also called peptide 1-9
T9 peptide: GDDSTPSIL

B1: 5H.RD2.A7b (antibody, IgG1, V domains shown)
VH: EVQLVESGGDLVKPGGSLRLSCSASGFTFFNTWMNWVRQAPGKGLEWVGRVKSKNDGGTKDYAAPVTGRFTISRDDSKDTLYLQMNSLKTEDTAVYYCTTDPHYDFWSAYWGQGTLVTVSS
VL: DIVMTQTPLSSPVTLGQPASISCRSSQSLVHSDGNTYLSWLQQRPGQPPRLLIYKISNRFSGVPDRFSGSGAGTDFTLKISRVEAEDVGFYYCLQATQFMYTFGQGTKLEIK
notes: also called MoB5H-RD2.A7b; MoB5H D2
B2: 5H RG4.H7b.F5b (antibody, IgG2a, V domains shown)
VH: QVQLVQSGAEVKKPGASVKVSCKASGYTFTGHYFHWVRQAPGQGLEWMGWINPNSGGTNFAQRFQGRVTMTRVTSISTAYMELSGLRSDDTAVYYCARGYYDTSGYYYAFEFWGQGTLVIVSS
VL: not shown
B3: 5H.RA3.D3b.A2b (antibody, IgG2a, V domains shown)
VH: QVQLVESGGGVVQPGRSLRVSCAASGFTFSSYGMLWVRQAPGKGLEWVAVIWYDGTKKYYADSLKGRFTISRDNSKYTLYLQMNSLRADDTALYFCARKGARGITGLDYWGQGTLVTVSS
VL: not shown
notes: also called MoB5H A3
B4: 5F RE6.D3.E7 (antibody, IgG2a, V domains shown)
VH: B3 VH with V5A, L35H
VL: DIQMTQSPSSLSASAGDRITITCRASQSISNYLNWYQQKPGKAPKLLIYAASSLQSGVPSRFSGSGSGTDFTLTISSLQPEDFASYYCRQNYNTPLTFGGGTKVEIK
notes: also called MoB5F E6
B5: 5I.RG1.D6.C1b (antibody, IgG3, V domains shown)
VH: QVQLQQWGAGLLKPSETLSLACAISSGSFSTYFWRWIRQPPGKGLEWIGEIIHTGSTTYNPSLKSRVTISVDTSKNQLSLKLSSVTAADTAVYYCAFEYSSSGGYYYGMDVWGQGTTVTVSS
VL: B4 VL with A15V, I19V, N31S, K39I, K45N, Q55R, S85T, R89Q, N91T, N93S
notes: also called 51.RG1; MoB5I G1
B6: 5G.RA1.E10.G3 (antibody, IgG2a, V domains shown)
VH: QVQLVESGGGVVQPGRSLRLSCAASGFTFSSYGMHWVRQAPGKGLEWVAVIWYDGSNKYYADSVKGRFTISRDNSKNTLYLQMNSLRAEDTAVYYCARETALVRGVPFDYWGQGTLVTVSS
VL: not shown
notes: also called MoB5G A1
B7: 5G RG1.D3.C2b (antibody, IgG1, V domains shown)
VH: B6 VH with A23V, F29L, N57S, A61T, T69D, S85I, A101I, V103I, R104G
VL: EIVLTQSPGTLSLSPGERATLSCGASQSIRSNYLAWYQQKPGQAPRLLIYGASSRATGTPDRFSGSGSGTDFTLTITRLEPEDFALYYCQQYGRSYTFGQGTKLEIK
notes: also called MoB5G G1
B8: 5G RD6.D1.E11b (antibody, IgG2a, V domains shown)
VH: B6 VH with T28A, K58R, N74T, Y80F, L102M
VL: not shown
B9: 5D.RH4.G7.E6.C7b.G7 (antibody, IgG2a, V domains shown)
VH: QIQLVESGGGVVQPGRSLRLSCAASGFTFSSDGMHWVRQAPGKGLEWVAVIWFDGRNKYYLDSVKGRFTISRDNSKNTLYLQMNSLRAEDTAVYYCARESSISTRPPFDYWGQGTLVTVSS
VL: not shown
notes: Human variable regions on mouse constant regions, IgG2a/K

What was measured:
[1] = biological target: T1, human PAR4 on isolated human platelets; experiment: cell-based or functional assay
hPAR1 (Biotin) peptide [2] = biological target: T2, hPAR1 (Biotin) peptide; experiment: ELISA, hybridoma supernatant
hPAR4 (naked) peptide [3] = biological target: T3, hPAR4 (naked) peptide; experiment: ELISA, hybridoma supernatant
hPAR3 (Biotin) peptide [4] = biological target: T4, hPAR3 (Biotin) peptide; experiment: ELISA, hybridoma supernatant
mPAR4 (naked) peptide = biological target: T5, mPAR4 (naked) peptide; experiment: ELISA, hybridoma supernatant
hPAR1 (Biotin) peptide [5] = biological target: T2, hPAR1 (Biotin) peptide; experiment: ELISA, biotinylated peptide on streptavidin plate, absorbance 405 nm
Method: (§1) Biotinylated peptides (hPAR1-4) were diluted in Wash buffer and allowed to bind to the blocked Streptavidin coated wells at 10 ug/ml (100 ul per well) for 1 hour at room temperature with gentle mixing. Wells were washed 3 times as above and purified anti-hPAR4 mAbs prepared at 10 ug/ml in Wash buffer were allowed to bind (100 ul/well) for 1 hour at room temperature with gentle mixing. The plate was washed 3 times as above and anti-mouse Fc conjugated to Alkaline phosphatase (AP) at 0.3 ug/ml (100 ul) was added to the wells for 1 hour as above. Wells were washed 3 times as above and developed with Alkaline Phosphatase substrate as described for the screening supernatant ELISA.
(§2) To further characterise the purified anti-hPAR4 mAb's the specificity of the mAbs to hPAR1, hPAR2, hPAR3 and hPAR4 biotinylated peptides was performed.

hPAR3 (Biotin) peptide [6] = biological target: T4, hPAR3 (Biotin) peptide; experiment: as above
Method: as §1, §2

hPAR2 (Biotin) peptide = biological target: T6, hPAR2 (Biotin) peptide; experiment: as above
Method: as §1, §2

[7] = biological target: T1, human PAR4 on isolated human platelets; experiment: flow cytometry on isolated human platelets
hPAR4 (Biotin) peptide = biological target: T7, hPAR4 (Biotin) peptide; experiment: SPR Biacore T200, biotin peptide on SA chip, whole mAb as analyte
Method: (§3) The kinetics of the binding interaction between the mAbs and hPAR4 was measured using Surface Plasmon Resonance (SPR; Biacore) by two different methods: 1. Anti-mouse Fc mAb capture method and 2. Streptavidin (SA) chip to capture biotinylated peptide. The ka(on) rate and kd(off) rates and KD were measured and fitted to a Langmuir model using the Biacore evaluation software.

hPAR4 (naked) peptide [8] = biological target: T3, hPAR4 (naked) peptide; experiment: SPR Biacore T200, mAb captured by anti-mouse Fc, hPAR4 peptide as analyte
Method: A series S CM5 sensor chip was activated with standard EDC/NHS amine coupling chemistry using the manufacturers recommended protocol with Goat anti-mouse IgG Fc. Anti-hPAR4 mAbs were captured at 1-2 ug/ml for 2 minutes at 10 ul/minute on flow cell 2 (FC2) and flow cell 1 (FC1) was used as a reference channel. […] Blank injections of buffer alone were also performed. All injections were performed in duplicate and in a random order.
as §3

hPAR4 (naked) peptide [9] = biological target: T3, hPAR4 (naked) peptide; experiment: ELISA, purified mAb on hPAR4 peptide
hPAR4 11-20 peptide = biological target: T8, hPAR4 11-20 peptide; experiment: ELISA, peptide coated on the plate, purified mAb, background subtracted
Method: (§4) Briefly the peptides were coated onto a Nunc maxisorp ELISA plate at 10 ug/ml overnight in coating buffer (0.1 M sodium carbonate pH8.0). Purified mAbs diluted in PBS were used in place of supernatant.

hPAR4 1-9 peptide = biological target: T9, hPAR4 1-9 peptide; experiment: as above
Method: as §4

Row | Binder | platelet aggregation, % of control [1] | binding to PAR1 ratio (hPAR1 (Biotin) peptide [2]) [ratio] | fold binding native vs KLH-linked PAR4 peptide (hPAR4 (naked) peptide [3]) [fold] | binding to PAR3 ratio (hPAR3 (Biotin) peptide [4]) [ratio] | binding to mouse PAR4 ratio (mPAR4 (naked) peptide) [ratio] | binding result (hPAR1 (Biotin) peptide [5]) | binding result (hPAR3 (Biotin) peptide [6]) | binding result (hPAR2 (Biotin) peptide) | GMFI at 10 ug/ml over isotype control [7] | also measured
1 | B1 | > 80 % of control | 1 | 6 | 0.9 | 6.2 | – | – | – | – | –
2 | B2 | > 80 % of control | – | – | – | – | – | – | – | – | –
3 | B3 | < 25 % of control | – | – | – | – | no binding (tested: 10 ug/ml) | no binding (tested: 10 ug/ml) | no binding (tested: 10 ug/ml) | 100 | –
4 | B4 | – | 1.1 | 12 | 0.8 | 12.2 | – | – | – | – | –
5 | B5 | – | 1 | 9.2 | 1 | 9.4 | no binding (tested: 10 ug/ml) | no binding (tested: 10 ug/ml) | no binding (tested: 10 ug/ml) | – | Kd (hPAR4 (Biotin) peptide): 0.36 nM; koff (hPAR4 (Biotin) peptide): 0.000667 s⁻¹; kon (hPAR4 (Biotin) peptide): 1.85e+06 M⁻¹ s⁻¹; Kd (hPAR4 (naked) peptide [8]): 105 nM; koff (hPAR4 (naked) peptide [8]): 0.00146 s⁻¹; kon (hPAR4 (naked) peptide [8]): 14000 M⁻¹ s⁻¹; ELISA Pos:Neg ratio (hPAR4 (naked) peptide [9]): 6.3 ratio
6 | B6 | – | – | – | – | – | no binding (tested: 10 ug/ml) | no binding (tested: 10 ug/ml) | no binding (tested: 10 ug/ml) | 25 | binding result (hPAR4 11-20 peptide): no binding; binding result (hPAR4 1-9 peptide): no binding
7 | B7 | < 25 % of control | 1.1 | 11.1 | 0.8 | 8.6 | – | – | – | – | –
8 | B8 | > 80 % of control | – | – | – | – | – | – | – | – | –
9 | B9 | – | – | – | – | – | no binding (tested: 10 ug/ml) | no binding (tested: 10 ug/ml) | no binding (tested: 10 ug/ml) | 33 | binding result (hPAR4 11-20 peptide): no binding; binding result (hPAR4 1-9 peptide): no binding

Source: patent US20260184780A1 (MONASH UNIVERSITY, published 2026)
